According to IntAct's records for PubMed 17567753:

B1: Lysine-specific demethylase 4A (Homo sapiens), O75164 (parent)
chain: MASESETLNPSARIMTFYPTMEEFRNFSRYIAYIESQGAHRAGLAKVVPPKEWKPRASYDDIDDLVIPAPIQQLVTGQSGLFTQYNIQKKAMTVREFRKIANSDKYCTPRYSEFEELERKYWKNLTFNPPIYGADVNGTLYEKHVDEWNIGRLRTILDLVEKESGITIEGVNTPYLYFGMWKTSFAWHTEDMDLYSINYLHFGEPKSWYSVPPEHGKRLERLAKGFFPGSAQSCEAFLRHKMTLISPLMLKKYGIPFDKVTQEAGEFMITFPYGYHAGFNHGFNCAESTNFATRRWIEYGKQAVLCSCRKDMVKISMDVFVRKFQPERYKLWKAGKDNTVIDHTLPTPEAAEFLKESELPPRAGNEEECPEEDMEGVEDGEEGDLKTSLAKHRIGTKRHRVCLEIPQEVSQSELFPKEDLSSEQYEMTECPAALAPVRPTHSSVRQVEDGLTFPDYSDSTEVKFEELKNVKLEEEDEEEEQAAAALDLSVNPASVGGRLVFSGSKKKSSSSLGSGSSRDSISSDSETSEPLSCRAQGQTGVLTVHSYAKGDGRVTVGEPCTRKKGSAARSFSERELAEVADEYMFSLEENKKSKGRRQPLSKLPRHHPLVLQECVSDDETSEQLTPEEEAEETEAWAKPLSQLWQNRPPNFEAEKEFNETMAQQAPHCAVCMIFQTYHQVEFGGFNQNCGNASDLAPQKQRTKPLIPEMCFTSTGCSTDINLSTPYLEEDGTSILVSCKKCSVRVHASCYGVPPAKASEDWMCSRCSANALEEDCCLCSLRGGALQRANDDRWVHVSCAVAILEARFVNIAERSPVDVSKIPLPRFKLKCIFCKKRRKRTAGCCVQCSHGRCPTAFHVSCAQAAGVMMQPDDWPFVVFITCFRHKIPNLERAKGALQSITAGQKVISKHKNGRFYQCEVVRLTTETFYEVNFDDGSFSDNLYPEDIVSQDCLQFGPPAEGEVVQVRWTDGQVYGAKFVASHPIQMYQVEFEDGSQLVVKRDDVYTLDEELPKRVKSRLSVASDMRFNEIFTEKEVKQEKKRQRVINSRYREDYIEPALYRAIME

Variants of: B1
Conditions: with h31t_human H3-4, Q16695

| Variant | effect of a mutation on the interaction |
| --- | --- |
| Y177F | decreasing interaction |
| Y177L | disrupting interaction |
| D135A | decreasing interaction |
| Q88A | decreasing interaction |
| K241L | disrupting interaction |
| K241A | disrupting interaction |
| N290V | disrupting interaction |
| N290A | disrupting interaction |
| N290D | disrupting interaction |
| N290I | disrupting interaction |
| Y175F | decreasing interaction |
| N86A | decreasing interaction |

Variants of: B1
Conditions: with h31t_human H3-4, Q16695
Remark: another data set of the same source

| Variant | effect of a mutation on the interaction |
| --- | --- |
| G165A;G170A | disrupting interaction strength |
| G133A;G138A | disrupting interaction strength |
